Results taken from the DeepSol protein solubility set.

Experiment: soluble on expression in E. coli; label from the status in PepcDB or PDB records

Sequence | soluble on expression in E. coli
MGSDKIHHHHHHMTYDFLIIGGGIAGTSAGAALSRLGTTCLLEAESALAYHASGRSAALFEPNYGHPVTVDLSHASATALRTLGGGVLSPRGLLILAGPGEDAALARDIKTMDLAEISIADAQDMIPILNADHITRAAHHAAAWDIDTDRMVQHYARQIRTNGAVETGATVLGLTKTPQGWTVETRDHSFHARIIVNAAGAWADDIARMAGIAPIGLTPKRRSMARMPAPRGHDVSAWPMIIGAGESWYAKPDAGAWLVSPAEEDPAAPHDAYADDMVLAEGIARYQPFVTEEVTRVTSSWAGLRTFAPDRCLVIGPDRTDPSVLWFAGQGGYGFQTAPAASQLLADLVSGAPSTLDPATVKALSPSRF | not soluble
MNTFQMRDKLKERLSHLDVDFKFNREEETLRIYRTDNNKGITIKLNAIVAKYEDKKEKIVDEIVYYVDEAIAQMADKTLESISSSQIMPVIRATSFDKKTKQGVPFIYDEHTAETAVYYAVDLGKSYRLIDESMLEDLKLTEQQIREMSLFNVRKLSNSYTTDEVKGNIFYFINSNDGYDASRILNTAFLNEIEAQCQGEMLVAVPHQDVLIIADIRNKTGYDVMAHLTMEFFTKGLVPITSLSFGYKQGHLEPIFILGKNNKQK | not soluble
SLQCLRFAGAATHPAQAPCMPGPACEPVETFLKTCQAPGSEPTGAASLRAKYLPPSTASIRVSAGLLRAALEDSHSGFHLCSATLRWLLAENAAVDVVRAQTLSSIQGIAPDGTDVNLTVHEVAVTDLSPAGPIQAVEIQVESSSLANMCRAHHAIIRRIQTMVTEQAALGSSPPDLRMQYLQQIHANHQELLREVQALRDQLCTEDELSSCSTAQKLLHIYKQLRNPSLVLL | not soluble
MIQAVFERAEDGELRSAEITGHAESGEYGLDVVCASVSTLAINFINSIEKFAGYEPILELNEDEGGYLMVEIPKDLPSHQREMTQLFFESFFLGMANLSENYSEFVQTRVITEN | soluble
STGSKQRSQNRSKTPKNQEALRMANVAENSSSDQRQACKKHELYVSFRDLGWQDWIIAPEGYAAYYCEGECAFPLNSYMNATNHAIVQTLVHFINPETVPKPCCAPTQLNAISVLYFDDSSNVILKKYRNMVVRACGCH | soluble
MSLSSAPDIILHRGLFTTLDRSNPAASAVAIADGRFVAVGHDHDVMKLAGPSTKIVDLRGRRVLPGLIDNHLHIIRGGLNFNMELRWDGVRSLATAMDMLKRQVAVTPPPQWVRVVGGFTEHQFAEKRLPTIDELNAVAPDTPVFLLHLYDRAILNGAALRAVGYAKDTPEPPGGEIMRDTKGNPTGLLLAKPNANILYATLAKGPKLPFDYQVNSTRHFMRELNRLGVTGAIDAGGGFQNYPDDYAVIQKLSDEGLLTIRLAYNLFTQKPKGEKADFLNWTKTSKYKQGDDYFRHNGAGEMLVFSAADFEDFRVARPDMPAEMEGELEEVVRVLVQNKWPWRLHATYDETISRALDVFERVNQDIPLEGLHWFFDHAETISDQSIDRIAALGGGIAVQHRMAYQGEYFVERYGAGAAEATPPVKKIIDKGVKVSAGTDATRVASYNPWVSLSWLVTGRTVGGLRITPQRNCLDRETALRMWTENVTWFSNEEGNKGRIQVGQLADLVVPDRDYFSCSEAEIADTTSLLTMVGGRIVYGAGDFSKLESVTPPPAMPDWSPVRRFGGYAAWADDTAKTKDTSLAMKAMQMCGCANSCGVHGHDHAAAWSSRLPVSDLRSFWGALGCACWAVEGHHHHHH | not soluble
VARSSKLLGWCQRQTDGYAGVNVTDLTMSWKSGLALCAIIHRYRPDLIDFDSLDEQNVEKNNQLAFDIAEKELGISPIMTGKEMASVGEPDKLSMVMYLTQFYEMFKD | soluble
MGSDKIHHHHHHMNNTPANRLQPKHFTLIKAIGDLGQLSLAAGQVSMTQPAASRMLAEIERIVGAAVFLRTPKGMEATEVGAALVRRSEILLQEMREAMREVDAIKRGASGTVSVGAVTGGALGYIVPAISTLKAEARTADIYVDVAPSGTLISNLVSGQFDFVLGRIPVGVDARQFHIRHARTEEVDLIVHQSHPLANSTDLRMTDLLHFPWVMQGPGAPVRQAVENAFIDAGTTLPVDVVNTTSLLVMIAMIAASNAITPLSREVSDLLCRQTTGAGLCRLKIRRPIIVLPYHLISMKNRHMSTLAARLQDLVLQEFITR | not soluble
MAHHHHHHMGENRRPSRWSSERYTNLFVPNYIPPELMLYDEGQFLRAFLLRVLSIDLNRLIETKRCGDYFINIPLVPEYNSEGQRTNTPDELVAEKRLKVMDELTNLLRQHSELELNAKTQKEVVRKRYFTQEEMDNGAYGAILGARGMVHQELERLTKCKIVLAGRGITNALKDTSANAARVALEDPHARITAPNEQALQHAMERIEWILSDDPEALEFRENNRKRMAQIEGRYDPRTWVSLAERNAKNPRRMGEKREREEEAKEELDADLQEFLDEL | soluble
MALGPLVTGLYDVQAFKFGDFVLKSGLSSPIYIDLRGIVSRPRLLSQVADILFQTAQNAGISFDTVCGVPYTALPLATVICSTNQIPMLIRRKETKDYGTKRLVEGTINPGETCLIIEDVVTSGSSVLETVEVLQKEGLKVTDAIVLLDREQGGKDKLQAHGIRLHSVCTLSKMLEILEQQKKVDAETVGRVKRFIQEAHHHHHH | soluble
MGSDKIHHHHHHMYKLNQNETPLFNALMEYVNRDTIPFHVPGHKKGNGIDKEFKNFIGENPFKIDVTVFKLVDSLHHPTGPIKKAQELAADAYGSKAAFYSVNGTSGAIQGMILSVVGDGDKIIVPRNVHKSVTAGIILSGAVPVYMHPEVDRRVGIAHGVSPETVGETLKNNPDAKAVLLINPTYYGVSTDIKKIADIVHSYDIPLIVDEAHGPHLSFNDRLPVSALKAGADMCAQSTHKIIGALTQMSLLHVNSDRIDMNRVQQIMNLLQTTSPSYILMASMDCARRQIALHGKELLDGTIDLCNYARREINKIPGFYCFGEEVLGKPGSYAFDPTKLTITCTDLGITGYDLDMLLANDYHIQVELSDLYNVLAVGSFGDTKENIDALINALRQISKSISSTVKNKKNSFIDIPDVPERILSPRDAFNGAKESMLIKDSVGKTSGEFLMAYPPGIPVLCPGEIITQEIIDYVSDLKAAGLYVQGTEDPDVNYIKVLK | not soluble
GSSANDWQCKTCSNVNWARRSECNMCNTPKYAK | soluble
MSLGDEWARIRKDGALLIGLEGTFPPYSQLAGGQLQGFEVDFGRALAAQMGVTARFQTMVWDHMLDSLAAGRLDAVINQVVATPARGKRFDFSIPYTYSGLQLVVRKPDLTRFRGARDLAGAHVGVSAGTNYEQWLRDNAPQAHIHLYQDDPTKFDGLRRGEVDAIVINRLAAFNLALKSQGELVPTGRVLAREDACVVLRKGNPRLLAEVNRAIGHLQRDGTLQALSRKWFKADIVSEGHHHHHH | soluble
MKLHLEIWRQAGPNSEGHFEPIDVNDAVPQMSVLELLDHVNTGLIEEGKEPFVFASDCREGICGTCGLLVNGRPHGLDKNKPSCQQRLDHVPDGSTLKIEPLRSAAYPVVKDLLVDRSALDRVLEKGGFVSINAGTAPDADTLHQNHESAELALDH | not soluble
MKCIESLGKTVDEAVKKALSELKVTEDKVEIKVIDEGSKGLLNIIGKREAKVKVTLKTDYIDEVRTFLRKVFEDMNLVIEIKIKEIGNDLFVNLFGKNIGLLIGYRGETLDSLQYLVNLVANKNHADGKYKRVILDTENYRAKREETLKRLALKISKRVKEEKSPFKLEPMNPYERRVIHSALQNDKYVRTYSEGEEPHRRVVVELKKS | not soluble
MGSDKIHHHHHHMTEITTLSQFLTTAKTQFQVYDLGRRVQHIDMLAFHQIESLSTPYPYPIQGHAQFAIVFWDASQQHFIWFLKLALDEQGLLSPAPRSQFIEMILAALGQDPTQPLSDEQQERLANNPFNFKPSQEKLAVFNALVRKQLGQRASSQYEFAVQYLSGQVAPAQWQHIGMQGIADVCARANEFDHEQQLVSSFDTAAIEVQIALCQCLEHLLISDTLADKILAKLQDAAPEHQAYFLRALASSAKHSQQAFEHLHGQASLDTNALISIAGRNWSVLKQDSSRSLYLEALALQPQAFFNQVFADIVAIPSLRNQLLGELRNPNRSVQLSQAIGGLFKAASK | not soluble
MDNIQQEKLKNLIRSLEKSASPQEAEYLMGEILVPLLAEDGYSIQAVGDQRDFGVDFIARKDKHEEQFPEEIAIEYKHYRKAAVGLDVVHRVLGAAMSMGLSRAMVITNSRFTYAAREAIRRSSPVGVELLDIDALRSWIGRIEEVPSIDVVQVNIIRREFSRRLIELILKNPRYLDEIEWREMERLLAEVFEGLGFSVRLTPGSKDGGKDIILTCQVATKNHTYYVEVKHWRSGQRVGSGAITEFLNVIINEQIDGGLYLSTYGYCSNSIESLTEIQRKSLRFGTENKVVTLCQSYVKAMSGIWAPDKLLPEVLYDNTL | not soluble
MGSDKIHHHHHHMAGLRVFVSSTCYDLSVIRSQLRIFIQSLGHEPLMSDYSDLLYDPRLHTHTSCVDEVATADIVVLIVGARFGGKTVPEALAKLDFDLLKKESKSTESLIKKENLSVTQLEILKAVESGIPVFTFVDSSVWHDHALYEKNKDKPIINDISFPSIEKAETASFIFEFINFLRHRARGNSVYTFSKLQDIEDTLRRQWSSLFQKLIQEQRSKAFEAKRLDNLTEQFEDLKTAILTSIGTTNERDVARGVVRFRRLIDFVRSLGLKDHNFLIRGHHPWDELLHYAEIEKVLDAAELPEEFIFHRRNFGSRPRMFLIKNDGTFFELRTSPDFFHSLSLEWEAFMDLPEDTREIIVDALSEMRPGMGPLRYIREPFDYHVDKWIHQERLLKDIDDSDHESSHS | not soluble
MGSDKIHHHHHHMSLDNHYDVDAALDKALKDDFLRKATRRATDRLRNNKLAITEELGNWEEWRQVGERIRNHVVENLDYYLDMLIENVEKNGGHVHLAKTPEDGVRIVQEIFQKHGFKSVIKSKSMITEEIHLNPVLEKDGIEVVETDLAEYIIQIADEPPSHIIVPAMHKTREQIAKLFEPIAGHPLESDTPTLTKFAREQLREKFLTSKIGITGCNFAVADTGTITMVTNEGNGRLTSTMPEVQITMMGMERIVPSYKELSVLLNLLARSATGQRLSVYTTMITPPKREGDIDGPKEWHLVILDHNRSEILGDEDFRSSLRCIRCGACFNVCPVYRQVGGHAYGSVYSGPIGVVITPLLEQNYEKWGHLPYYSSLCAACSEACPVRIPLQDLIVKHRDRKVLKGYTSGVEKKIFKYYGYYFSHPKTLSKFVRLGSKFQFILMRNGRIASGPPPLSNWTNSKTLPPVAKQMFRDQWPELEKKLKTMQRGDQ | not soluble
GSNSQVWSALQMSKALQDSAPDRPSPVERIVSRDIARGYERIPIPCVNAVDSEPCPSNYKYVSQNCVTSPMNIDRNITHLQYCVCIDDCSSSNCMCGQLSMRCWYDKDGRLLPEFNMAEPPLIFECNHACSCWRNCRNRVVQNGLRARLQLYRTRDMGWGVRSLQDIPPGTFVCEYVGELISDSEADVREEDSYLFDLDNKDGEVYCIDARFYGNVSRFINHHCEPNLVPVRVFMAHQDLRFPRIAFFSTRLIEAGEQLGFDYGERFWDIKGKLFSCRCGSPKCRHS | soluble
GSHMASMTGGQQMGRGSDSSNAITIENNTLWTGAKPSANCVIKEGEDSPDCKLTLVLVKNGGLINGYITLMGASEYTNTLFKNNQVTIDVNLAFDNTGQIITYLSSLKSNLNFKDNQNMATGTITSAKGFMPSTTAYPFITYATETLNEDYIYGECYYKSTNGTLFPLKVTVTLNRRMLASGMAYAMNFSWSLNAEEAPETTEVTLITSPFFFSYIREDD | soluble
